Tests used:
[1] = target: T1, human IL-18 (MBL Medical & Biological Laboratories, Co., Ltd.) (human, UniProt Q14116 37-193, biotinylated (Biotin-PEAC5-maleimide or Biotin-AC5 Sulfo-OSu) in the streptavidin plate ELISAs and the panning; not labelled in the receptor binding and KG-1 assays); test: blocking ELISA: human IL-18 with IL-18Rα-hFc-His and the antibody added to plate-bound IL-18Rβ-hFc, anti-His tag/HRP; blocked partner: IL-18 receptor
T1 construct: Bought protein; also called human interleukin-18; biotinylated human IL-18
T1 sequence (looked up): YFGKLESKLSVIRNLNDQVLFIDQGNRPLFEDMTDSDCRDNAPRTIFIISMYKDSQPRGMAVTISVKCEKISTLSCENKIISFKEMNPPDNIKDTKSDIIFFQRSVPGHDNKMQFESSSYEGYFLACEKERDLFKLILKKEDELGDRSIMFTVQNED
Description: IL-18Rβ-hFc (R&D Systems, Inc.) was added at 100 μL/well at a concentration of 1 μg/mL to Covalink plates (Nunc) and incubated at room temperature for 1 hour and then incubated overnight at 4° C. On the next day, the plates were washed with PBS (phosphate buffered saline) and blocked with 1% BSA (bovine serum albumin)-PBS. Human IL-18 (MBL Medical & Biological Laboratories, Co., Ltd.) was prepared at a concentration of 0.5 μg/mL with 1% BSA-PBS, and IL-18Rα-hFc-His (R&D Systems, Inc.) was prepared at a concentration of 2 μg/mL with 1% BSA-PBS. Both of the solutions were mixed (50 μL each). The obtained anti-IL-18 antibody was further added to the IL-18/IL-18Rα-hFc-His mixed solution. This mixed solution was added to the IL-18Rβ-hFc-immobilized Covalink plates and incubated at 37° C. for 1 hour. After 1 hour, the plates were washed with PBST (phosphate buffered saline-Tween 20), and a detection antibody anti-His tag/HRP (Bethyl Laboratories, Inc.) was added at 100 μL/well to the plates and incubated at 37° C. After 1 hour, the plates were washed with PBST, and TMB (Sigma-Aldrich Corp.) was added at 100 μL/well to the plates to develop color. After 30 minutes, the reaction was terminated with 2 N sulfuric acid, and the color values (O.D. 450 nm/650 nm) were measured using a microplate reader (Molecular Devices, Inc.).

[2] = target: T2, human IL-1β (Funakoshi Corp.) (human, UniProt P01584 117-269, biotinylated (Biotin-PEAC5-maleimide or Biotin-AC5 Sulfo-OSu)); test: ELISA on biotinylated cytokine on streptavidin plates
T2 construct: also called biotinylated human IL-1β

[3] = target: T3, mouse IL-18 (MBL Medical & Biological Laboratories, Co., Ltd.) (mouse, UniProt P70380 36-192, biotinylated (Biotin-PEAC5-maleimide or Biotin-AC5 Sulfo-OSu)); test: as above
T3 construct: also called biotinylated mouse IL-18
T3 sequence (looked up): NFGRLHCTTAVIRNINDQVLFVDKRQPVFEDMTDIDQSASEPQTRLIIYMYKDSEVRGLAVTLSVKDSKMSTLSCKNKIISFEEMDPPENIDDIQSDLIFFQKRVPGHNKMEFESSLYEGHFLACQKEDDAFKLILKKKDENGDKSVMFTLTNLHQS

[4] = target: T4, rat IL-18 (Acris Antibodies GmbH) (rat, UniProt P97636 37-194, limits assumed, biotinylated (Biotin-PEAC5-maleimide or Biotin-AC5 Sulfo-OSu)); test: as above
T4 construct: also called biotinylated rat IL-18
T4 sequence (looked up): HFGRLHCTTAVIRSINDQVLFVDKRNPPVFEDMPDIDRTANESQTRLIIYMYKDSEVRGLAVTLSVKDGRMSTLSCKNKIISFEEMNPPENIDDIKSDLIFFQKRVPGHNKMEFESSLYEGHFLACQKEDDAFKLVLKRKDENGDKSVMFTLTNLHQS

[5] = target: T5, human IL-33 (MBL Medical & Biological Laboratories, Co., Ltd.) (human, UniProt O95760 112-270, limits assumed, biotinylated (Biotin-PEAC5-maleimide or Biotin-AC5 Sulfo-OSu)); test: as above
T5 construct: also called biotinylated human IL-33
T5 sequence (looked up): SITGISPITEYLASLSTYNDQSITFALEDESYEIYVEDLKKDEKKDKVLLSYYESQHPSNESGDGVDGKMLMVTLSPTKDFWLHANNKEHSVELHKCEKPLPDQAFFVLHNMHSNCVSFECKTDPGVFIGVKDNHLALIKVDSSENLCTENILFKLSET

[6] = target: T1, human IL-18 (MBL Medical & Biological …); test: cell-based or functional assay
[7] = target: T1, human IL-18 (MBL Medical & Biological …); test: flow cytometry, blocking: human IL-18 100 ng/mL pre-mixed with the antibody, added to KG-1 cells, bound IL-18 detected with biotinylated 125-2H and streptavidin-PE; blocked partner: native IL-18 receptor [b]
Description: Human IL-18 (MBL Medical & Biological Laboratories, Co., Ltd.) was diluted to 100 ng/mL with 1% BSA-PBS-0.05% NaN₃-2% rabbit serum, mixed with the obtained anti-IL-18 antibody, and incubated at room temperature for 60 minutes. Then, the human IL-18/anti-IL-18 antibody mixed solution was added to KG-1 cells (1×10⁵ cells) cultured by a standard technique (e.g., a medium in which an RPMI1640 medium was supplemented with 10% bovine serum, 2 mM L-glutamine, 50 U/mL penicillin, and 50 μg/mL streptomycin), and reacted on ice. After 30 minutes, the supernatant was removed by centrifugation (1200 rpm, 3 min, 4° C.), and a biotinylated anti-IL-18 antibody 125-2H (MBL Medical & Biological Laboratories, Co., Ltd.) not inhibiting the binding between IL-18 and IL-18 receptor was added thereto and reacted on ice. After 30 minutes, the supernatant was removed by centrifugation (1200 rpm, 3 min, 4° C.), and streptavidin-PE (BD Becton, Dickinson and Company) was added thereto and reacted on ice for 30 minutes. After the reaction, the supernatant was removed by centrifugation (1200 rpm, 3 min, 4° C.), and the KG-1 cells were floated with 1% BSA-PBS-0.05% NaN₃-2% rabbit serum. The fluorescence intensity in the reacted KG-1 cells was measured using FACScan (BD Becton, Dickinson and Company).

IC50 (read off the curve) [1]: ~0.3 µg/mL
binding result [2]: no binding
binding result [3]: no binding
binding result [4]: no binding
binding result [5]: no binding
Neutralizing ability (IC50, nM) [6]: 0.007 nM
IC50 (read off the curve) [7]: ~0.2 µg/mL
B1: IgG molecule-type 4A6D (antibody, V domains shown)
VH: EVQLVESGGGLVQPGGSMRLSCTASGFTFDEYAMSWVRQAPGKGLEWVSGISTGGGGTYYADSVEGRFTISRDNSKNTLYLQMNSLRAEDTAVYYCAKPWLSGSRSGDFWGQGTLVTVSS
VL: QSALTQPASVSGSPGQSITISCTGTSSDVGGYNYVSWYQQHPGKAPKLLIYEVSHRPSGVSDRFSGSKSGNTASLTISGLQAEDEADYYCSSFTSSSSLYVFGTGTKLTVL
notes: detected with anti-hFc, so human constant regions; also called human anti-human IL-18 antibody 4A6D

Source: US20190077858A1 (KM BIOLOGICS, published 2019)
